# “And” between values parts separate entries of the source, which are not always exact repeats. Identical values can stand only once. Residues, ends and D or L forms follow the SMILES beside them. *: point of attachment. Cbz = O=C(OCc1ccccc1)*
# B1: Aspergillus oryzae ATCC 20386 carboxypeptidase I (Aspergillus oryzae RIB40) (protein)
# chain: LPGSTPASVGRRQLPKNPTGVKTLTTANNVTIRYKEPGAEGVCETTPGVKSYSGYVDTSPESHTFFWFFEARHNPETAPITLWLNGGPGSDSLIGLFEELGPCHVNSTFDDYINPHSWNEVSNLLFLSQPLGVGFSYSDTVDGSINPVTGVVENSSFAGVQGRYPTIDATLIDTTNLAAEAAWEILQGFLSGLPSLDSRVQSKDFSLWTESYGGHYGPAFFNHFYEQNERIANGSVNGVQLNFNSLGIINGIIDEAIQAPYYPEFAVNNTYGIKAVNETVYNYMKFANQMPNGCQDLISTCKQTNRTALADYALCAEATNMCRDNVEGPYYAFAGRGVYDIRHPYDDPTPPSYYNKFLAKDSVMDAIGVNINYTQSNNDVYYAFQQTGDFVWPNFIEDLEEILALPVRVSLIYGDADYICNWFGGQAVSLAANYSQAAQFRSAGYTPLKVNGVEYGETREYGNFSFTRVYEAGHEVPYYQPIASLQLFNRTIFGWDIAEGQKKIWPSYKTNGTATATHTQSSVPLPTATSMSSVGMA
# B2: carboxypeptidase: carboxypeptidase purified from FLAVOURZYME broth, approximately 68 kDa serine carboxypeptidase, amino acid sequence SEQ ID NO: 2 (protein, listed as Aspergillus oryzae)
# chain: MRGYEFLSVLPLVAASWALPGSTPASVGRRQLPKNPTGVKTLTTANNVTIRYKEPGAEGVCETTPGVKSYSGYVDTSPESHTFFWFFEARHNPETAPITLWLNGGPGSDSLIGLFEELGPCHVNSTFDDYINPHSWNEVSNLLFLSQPLGVGFSYSDTVDGSINPVTGVVENSSFAGVQGRYPTIDATLIDTTNLAAEAAWEILQGFLSGLPSLDSRVQSKDFSLWTESYGGHYGPAFFNHFYEQNERIANGSVNGVQLNFNSLGIINGIIDEAIQAPYYPEFAVNNTYGIKAVNETVYNYMKFANQMPNGCQDLISTCKQTNRTALADYALCAEATNMCRDNVEGPYYAFAGRGVYDIRHPYDDPTPPSYYNKFLAKDSVMDAIGVNINYTQSNNDVYYAFQQTGDFVWPNFIEDLEEILALPVRVSLIYGDADYICNWFGGQAVSLAANYSQAAQFRSAGYTPLKVNGVEYGETREYGNFSFTRVYEAGHEVPYYQPIASLQLFNRTIFGWDIAEGQKKIWPSYKTNGTATATHTQSSVPLPTATSMSSVGMA
# Experiments:
# Format in all cases: biochemical
# [1] = biological target: T1, Aspergillus oryzae ATCC 20386 carboxypeptidase I (Aspergillus oryzae, UniProt Q2TZ11); test: Substrate specificity of the carboxypeptidase (hydrolysis of N-CBZ-Ala-X / N-CBZ-Glu-X); conditions: 2 mM substrate, 2 hour incubation, 4.9×10^−7 M carboxypeptidase
# T1 sequence (Q2TZ11 19-555): B1 chain
# Method: (§1) The substrate specificity of the carboxypeptidase was determined by measuring the hydrolysis of a substrate listed in Table 1 at pH 4.0 in 50 mM acetate buffer. o-Phthaldialdehyde together with dithiothreitol were used to monitor the liberation of free IIe, Glu, Lys, Arg, Asp, Asn, Gly, Phe, amd Tyr under enzymatic hydrolysis according to the procedure of Roth, M., 1971, Analytical Chemistry 43: 880. The kcat value for the hydrolysis of N-CBZ-Ala-X or N-CBZ-Glu-X was determined based on the assumption that molecular weight of the carboxypeptidase was 68 kD and that the enzyme preparation was homogeneous.
# [2] = biological target: T1, Aspergillus oryzae ATCC 20386 carboxypeptidase I; test: Inhibition of the carboxypeptidase with 1,10-phenanthroline and phenylmethylsulfonyl fluoride; conditions: furylacryloyl-Ala-Lys as substrate, pH 7.0, 20 mM phosphate buffer, hydrolysis monitored at 340 nm
# Method: Inhibition of the carboxypeptidase with 1,10-phenanthroline and phenylmethylsulfonyl fluoride was evaluated using furylacryloyl-Ala-Lys as substrate at pH 7.0 in 20 mM phosphate buffer where hydrolysis was monitored at 340 nm.
# [3] = system: Aspergillus oryzae ATCC 20386 carboxypeptidase I; test: Substrate specificity of the carboxypeptidase (hydrolysis of N-CBZ-Ala-X / N-CBZ-Glu-X); conditions: compared with literature values
# Method: as §1
# [4] = substrate: C[C@H](NC(=O)/C=C/c1ccco1)C(=O)N[C@@H](CCCCN)C(=O)O; test: Km of the carboxypeptidase toward furylacryloyl-Ala-Lys; conditions: other: pH 4.0, 25° C.
# [5] = Specific activity of the carboxypeptidase (CPDU assay); conditions: 0.5 mM N-CBZ-Ala-Glu, pH 4.5, 25° C.
# Method: The activity of the carboxypeptidase was determined by measuring the rate of specific hydrolysis of N-CBZ-Ala-Glu. One carboxypeptidase unit (CPDU) is the amount of carboxypeptidase which liberates 1 micromole of glutamate per minute from a 0.5 mM N-CBZ-Ala-Glu solution at pH 4.5 and 25° C. A reagent containing o-phthaldialdehyde in combination with dithiothreitol was used to monitor the liberation of free glutamate under enzymatic hydrolysis according to the procedure of Roth, 1971, supra. The o-phthaldialdehyde reagent was a solution of o-phthaldialdehyde (6 mM) and dithiothreitol (6.5 mM) in 0.1 M sodium tetraborate. Briefly, 0.05 ml of the enzyme solution in 20 mM acetate buffer, pH 4.5 was incubated with 1 ml of substrate. At regular time intervals, a 0.3 ml aliquot was withdrawn, mixed with 0.9 ml of the o-phthaldialdehyde reagent, and the absorption at A340, using a path length of 1 cm, of the resultant product was measured. Where the dependence of A340 on the incubation time was linear, the specific activity of the enzyme was calculated using the equation: specific activity=slope (optical density per min)×11.35. By this procedure, the specific activity of the purified carboxypeptidase was determined to be 11 CPDU per mg protein which is equivalent to 11 micromoles glutamate per minute per mg protein.
# Soy Meal = test: Protein hydrolysis, degree of hydrolysis (DH), soy meal; conditions: Soy Meal 2% (w/v), pH 7.0, 18 hours at 50° C.; FLAVOURZYME 3 LAPU, carboxypeptidase 11.5 CPDU
# Method: (§2) Commercial grade soy meal, wheat gluten, casein and gelatin were used as protein substrates. The soy meal was prepared from defatted toasted soy grits 20/80/20 (Cargill BV, NL); vital wheat gluten was obtained from Crespel and Dieters, Denmark; casein was obtained as Na-Caseinate Miprodan (MD Foods, Denmark); and gelatin was obtained as Bonegelatin (DGF Stores, Denmark).
# (§3) The substrates were prepared as a 2% (w/v) aqueous solution, in which the protein concentration was determined by the method of Kjeldahl. Two hundred mg of each substrate, obtained in the form of a dry composition, was dissolved in 9 ml of tap water and the pH was adjusted to 7.0. […]
# (§4) The hydrolysates were cooled and the degree of hydrolysis (DH) was assayed in microtiter plates using OPA (ortho-phtaldialdehyde, Sigma Chemical Co., St. Louis, Mo.) as the detecting reagent. The DH, defined as described in by Adler-Nissen (1986, Enzymic Hydrolysis of Food Proteins, Elsevier Applied Science Publishers), was determined by reaction of the supernatant with OPA (ortho-phtaldialdehyde, Sigma Chemical Co., St. Louis, Mo.). […]
# (§5) A volume of 25 μl of suitably diluted supernatant was mixed with 200 μl of OPA reagent in a microtiter plate well and allowed to react for exactly 2 minutes at 25° C. […] The degree of hydrolysis was calculated on basis of the total amount of protein in the hydrolysis mixture (not on basis of soluble protein).
# [6] = system: soy meal, wheat gluten, casein and gelatin; test: Protein hydrolysis, DH, summary for all substrates
# Method: as §2, §3, §4, §5
# Wheat Gluten = test: Protein hydrolysis, degree of hydrolysis (DH), wheat gluten; conditions: Wheat Gluten 2% (w/v), pH 7.0, 18 hours at 50° C.; FLAVOURZYME 3 LAPU, carboxypeptidase 11.5 CPDU
# Method: as §2, §3, §4, §5
# Gelatin = test: Protein hydrolysis, degree of hydrolysis (DH), gelatin; conditions: Gelatin 2% (w/v), pH 7.0, 18 hours at 50° C.; FLAVOURZYME 3 LAPU, carboxypeptidase 11.5 CPDU
# Method: as §2, §3, §4, §5
# Casein = test: Protein hydrolysis, degree of hydrolysis (DH), casein; conditions: Casein 2% (w/v), pH 7.0, 18 hours at 50° C.; FLAVOURZYME 3 LAPU, carboxypeptidase 11.5 CPDU
# Method: as §2, §3, §4, §5
# [7] = Thermostability of the carboxypeptidase (residual activity); conditions: 10 minute incubation, 50 mM acetate buffer
molecule,measurement,setting,value
C[C@H](NC(=O)OCc1ccccc1)C(=O)N1CCC[C@H]1C(=O)O [N-CBZ-Ala-Pro] (Cbz-Ala-Pro-OH),fraction of substrate solution hydrolyzed,[1],16%
O=S(=O)(F)Cc1ccccc1 [phenylmethylsulfonyl fluoride],Inhibition of carboxypeptidase activity,[2],inhibits carboxypeptidase activity completely
"c1cnc2c(c1)ccc1cccnc12 [1,10-phenanthroline]",Inhibition of carboxypeptidase activity,[2],does not inhibit
C[C@H](NC(=O)OCc1ccccc1)C(=O)N[C@@H](Cc1ccccc1)C(=O)O [N-CBZ-Ala-Phe],kcat relative to acid carboxypeptidases O-1 and O-2 from Aspergillus oryzae,[3],at least 8.5 fold
B1,Km,[4],400 µM
B2,specific activity,[5],11 CPDU per mg protein and 11 micromoles glutamate per minute per mg protein
same,DH,Soy Meal,0
same,"effect on DH, enzyme alone",[6],no effect
same,effect on the DH obtained by FLAVOURZYME when added with FLAVOURZYME,[6],enhanced
same,DH,Wheat Gluten,0
same,DH,Gelatin,0
same,DH,Casein,0
same,residual activity,"[7]; pH 4.0, 55° C.",74%
same,residual activity,"[7]; pH 4.0, 60° C.",65%
